{"source": "paper PMC2628355", "about": "“The inhibition of assembly of HIV-1 virus-like particles by 3-O-(3',3'-dimethylsuccinyl) betulinic acid (DSB) is counteracted by Vif and requires its Zinc-binding domain” (Virology Journal, 2008)", "molecules": {"B1": {"name": "oligohistidine-tagged HIV-1 Vpr protein (natural protein, UniProt P69726 1-96, looked up)", "chain": "MEQAPEDQGPQREPHNEWTLELLEELKNEAVRHFPRIWLHGLGQHIYETYGDTWAGVEAIIRILQQLLFIHFRIGCRHSRIGVTRQRRARNGASRS", "notes": "HIV-1 Vpr; also called His-tagged Vpr; source: Sf9 cells infected with recombinant baculovirus AcMNPV-Vpr (obtained from Eric Cohen); in cells and in extracellular VLP"}}, "key": {"[1]": {"target": "VifsubCΔ170, triple mutant of HIV-1 Vif (subA+subB and deletion of the 23 C-terminal residues) (HIV-1)", "assay": "SDS-PAGE and immunoblotting (dimer band); whole cell lysates or VLP of baculovirus-infected Sf9 cells on SDS-denaturing 12% polyacrylamide gels, blotted with anti-His or anti-Vif antibody; a band at twice the monomer's mass"}, "[2]": {"target": "the molecule itself", "assay": "SDS-PAGE and immunoblotting (dimer band); whole cell lysates or VLP of baculovirus-infected Sf9 cells on SDS-denaturing 12% polyacrylamide gels, blotted with anti-His or anti-Vif antibody; a band at twice the monomer's mass"}}}
{"molecule": "VifsubCΔ170, triple mutant of HIV-1 Vif (subA+subB and deletion of the 23 C-terminal residues) (domain or fragment)", "values": [{"measurement": "stoichiometry N", "setting": "[1]", "result": 2}]}
{"molecule": "B1", "values": [{"measurement": "stoichiometry N", "setting": "[2]", "result": 2}]}
